In the supplement of paper PMC9170038:

Tested on: K4 kissing-loop RNA reporter
Test: apparent KD of K4 kissing-loop reporter; higher = weaker reporter binding
Conditions: Eterna round: R107
Experimental: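 RNA-MaP round R107: designed RNA switches with theophylline, tryptophan, arginine or FMN aptamers are transcribed on-chip within common flanks. They are titrated with a labelled K4 kissing-loop RNA reporter in RNA-MaP buffer (100 mM Tris pH 7.5, 80 mM KCl, 4 mM MgCl2), without ligand or with the indicated ligand. Median apparent KD per design.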

[1] = input ligand: theophylline 20 uM
[2] = input ligand: tryptophan 2.4 mM
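Also: bound reporter read as fluorescence of individual clusters on recovered sequencing chips by microscopy, with normalized cluster intensities fitted with a binding model.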

| Sequence | apparent KD of K4 kissing-loop reporter (input ligand: FMN 200 uM) [µM] | apparent KD of K4 kissing-loop reporter (input ligand: arginine 13.2 mM) [µM] | apparent KD of K4 kissing-loop reporter (input ligand: none) [µM] | apparent KD of K4 kissing-loop reporter [1] [µM] | apparent KD of K4 kissing-loop reporter [2] [µM] |
| --- | --- | --- | --- | --- | --- |
| AGACAUAUGACUGUAUGUUUCCAAGGUGUCAAGGAUAUAGUAAACACUAGAAGGUGAGAUCACAGGAGUGAUGUUCGAAAAUGGA [theeternabot_sameState_KL_FMN_A_14] | 0.419 | 0.208 | 0.237 | 0.233 | 0.248 |
| AGACCACAAAGUGGUCAGUGUUCGCUGCAGCGAGGACCGGUACGGCCGCCACUCGCGAGUGAUGUUCGCGAGAGCAGCGAACACA [Omei KL Tryp A Exc A v6] | 0.0909 | 0.0834 | 0.0821 | 0.0873 | 0.116 |
| AGACUACCACACUGUCAAUAGACAGUGAGCUAGGAUAUGCUGAUAAGCAGAAGGAGUGAUGUUCCAAGGUAGUCAAUAAAAUAAU [FmnAX 13 G29+A66] | 0.209 | 0.203 | 0.221 | 0.267 | 0.209 |
| AGACUACCACACUGUCAAUAGACAGUGGACUAGGAUAUGCUGAUAAGCAGAAGGAGUGAUGUUCCAAGGUAGUCAAUAAAAUAAU [FmnAX 13 G28+A66] | 0.294 | 0.257 | 0.309 | 0.396 | 0.279 |
| AGACUACCACACUGUCAAUAGACAGUGUACUAGGAUAUGCUGAUAAGCAGAAGGAGUGAUGUUCCUGGGUAGUCAAUAAAAUAAU [FmnAX 13 U28+G67] | 0.507 | 0.388 | 0.486 | 0.514 | 0.404 |
| AGACUACUGAUAGGAUAUAACAUACUAACUCGUAUACCAAAGGUAUACGAGACCCUUCUAGUGAUGUUAGAAGGGUCGGUAGUCA [Omei KL FMN B Exc B v6] | 0.0822 | 0.074 | 0.0763 | 0.0748 | 0.0739 |
| AGAGUUAUGCGAGGAUAUGCGGUUAGUACUCAAAGAGUACUAACAGCAGAGUGAUGUUCUGUGAAAGCAGAAGGUGCAUAACUCA [Omei KL FMN B SS B v10] | 0.153 | 1.06 | 1.04 | 1.12 | 1.32 |
| AGAGUUAUGCGAGGAUAUGCGGUUAGUACUCAAAGAGUACUAACGGCAGAGUGAUGUUCUGUGAAAGCAGAAGGUGCAUAACUCA [Omei KL FMN B SS B v9] | 0.274 | 0.523 | 1.09 | 0.327 | 1.36 |
| AGAUUCGACACGGCCGCCACUCGUGGUGGAUUACCUAGUGUCGAAGUUGAGUGAUGUUCAACUACGAGGACCGGGUGUUGAGUCU [KL-XTryp-B7 #analogue] | 0.253 | 0.161 | 0.215 | 0.211 | 0.448 |
| AGAUUCUUUUUUUUAUUUAAGUUUUCAGAAGGAGCGUGGUAGUACACAGGUAGGUCGCUGAAUUUUGGGCUAGUGAUGUUAGUUA [whbob_SS_Arginine_A_sa115] | 0.18 | 0.188 | 0.221 | 0.231 | 0.135 |
| AGCGAUGUUUUCUCUAGGAGUGAUGUUUUUCGAGGACCGGUACGGCCGCCACUCGGACGACGAGUGUGGUAGUGGGCUGUUGACU [ffmullin] | 0.483 | 0.296 | 0.441 | 0.231 | 0.493 |
| AGGAAGUGAGAAGGAUAUUACACUCGGAAGCGCUAGUGAUGUUAGCAUAGAAACAAGGGAACAUGGUAAGAAGGUCUUACAAUGA [theeternabot_sameState_KL_FMN_B_2] | 0.0766 | 0.0716 | 0.0389 | 0.0695 | 0.0401 |
| AGGAUCACGUCAGUGAUGUUGACAAGAGAUACCAGAGACGAAAGUCUCCCUUGGCAGCUCAUCGUGAUCCGUGACAAAGGUCACA [Omei KL hio A SS C v3] | 0.262 | 0.135 | 0.143 | 0.155 | 0.189 |
| AGGAUCCGUCGACAAAAGUCGACAUAAACCAAGGAUAUGACGAAAGUCAGAAGGUGGUCAUAAGGCCAGUGAUGUUGGUGGAUCC [FmnA 12 #SwitchBubble #K4Late] | 0.927 | 0.431 | 0.576 | 0.796 | 0.349 |
| AGGCACGAGCAAGGAUAUCGAGUAGAGUGAUGUUCUGCCUGGGUUGGCGCGUAAGGGCCUUCCCAGCGAGAAGGUGCUCGUGCCU [#2 Same State - FMN A Attempt #12 (HarryS)] | 0.253 | 0.681 | 0.939 | 0.677 | 0.66 |
| AGGCACGAGCAAGGAUAUCGAGUGGAGUGAUGUUCUGCCGACCCAGGACCGAAAGGUCCUGGGUCGCGAGAAGGUGCUCGUGCCU [#2 Same State - FMN A Attempt #8 (HarryS)] | 0.215 | 0.785 | 0.949 | 0.568 | 0.711 |
| AGGCCCGGCCGAAAGGCCGGGCCAAGAGAUACCAGCAGCGAAAGCUGCCCUUGGCAGCUCACUUAGUGAUGUUAAGAGAUAAAUG [SS Theo A Tesla 1.2] | 0.365 | 0.353 | 0.294 | 0.424 | 0.279 |
| AGGUACAAAAGUACCGCUAGAUCCACGGAAGGAGCGGCCGAAAGGCCAGGUAGGUCGCCGGGCAGUGAUGUUGCCGGAUCUAGCA [Omei KL Arginine A SS A v2] | 0.194 | 0.171 | 0.2 | 0.185 | 0.169 |
| AGGUCCGAGCCCGUAAGGGCUCGGACCUGUUAGGAUAUGACGUUAUUCAGAAGGGAUGGGUGGAGUGAUGUUCCACCCGCAAGGG [#2 Same State - FMN A Attempt #10 (HarryS)] | 0.0988 | 0.102 | 0.0932 | 0.0917 | 0.0957 |
| AGUGAAGUUAGUGAUGUGUGAGUUUGGGAAGGAGCGCCGAGAACGGCAGGUAGGUCGCCCAGUGAUGUUGGUGUAAAGAUGAGAG [whbob_Ex_Arginine_A_2t121] | 0.275 | 0.184 | 0.239 | 0.232 | 0.208 |
| AGUGAUGUAUGGCGGUUUGUCACUUAAAAUCAGGAUAUAUAAACAAAUAGAAGGGAUGGCGGAGUGAUGUUCCGCCGGCCGCCAU [FMN A Exl V1] | 0.171 | 0.145 | 0.177 | 0.179 | 0.162 |
